Measurements: publication PMC13681993 (2026)

Key:
[1] = target: T1, EGFR C-tail Y1016/Y1138 980-1210 (Homo sapiens, UniProt P00533); experiment: BLI
T1 chain: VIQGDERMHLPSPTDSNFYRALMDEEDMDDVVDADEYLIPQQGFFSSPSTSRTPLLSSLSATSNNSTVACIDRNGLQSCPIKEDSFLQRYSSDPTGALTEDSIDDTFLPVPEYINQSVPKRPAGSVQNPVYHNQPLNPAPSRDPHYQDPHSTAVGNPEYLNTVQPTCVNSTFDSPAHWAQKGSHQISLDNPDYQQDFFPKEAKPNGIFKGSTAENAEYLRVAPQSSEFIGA

[2] = target: T2, EGFR C-tail Y1016/Y1092 980-1210 (Homo sapiens, UniProt P00533); experiment: BLI
T2 chain: T1 chain

Kd [1]: 63.4 nM
Kd [2]: 429 nM
B1: PLCγ1 tandem SH2 N-SH2-C-SH2 (protein)
chain: WFHGKLGAGRDGRHIAERLLTEYCIETGAPDGSFLVRESETFVGDYTLSFWRNGKVQHCRIHSRQDAGTPKFFLTDNLVFDSLYDLITHYQQVPLRCNEFEMRLSEPVPQTNAHESKEWYHASLTRAQAEHMLMRVPRDGAFLVRKRNEPNSYAISFRAEGKIKHCRVQQEGQTVMLGNSEFDSLVDLISYYEKHPLYRKMKLRYPI
